B1: MYBL2 (parent)
chain: IAKHLKGRLGKQCRERWHNHLNPE
B2: GFOD1 (parent)
chain: SDDFCTFQMVLEGGVCCTVTLNFN

Variants of: B1
Test: protein stability index of a GFP-peptide fusion (GPS, HEK-293T) (PSI 1-6); higher = more stable
Conditions: c terminus: a fixed tail appended
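Also: lentivirally expressed fusions sorted by FACS into six bins by GFP to DsRed ratio, PSI derived from sequencing read proportions per bin multiplied by bin number.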

| Variant | protein stability index |
| --- | --- |
| N22S | 2.29 |
| N22E | 2.42 |
| N22K | 1.51 |
| N22V | 2.44 |
| N22Y | 2.45 |
| N22D | 2.06 |
| N22H | 1.91 |
| N22P | 1.35 |
| N22C | 1.92 |
| N22L | 2.24 |
| N22I | 2.09 |
| N22Q | 2.05 |
| N22G | 1.43 |
| N22M | 2.58 |
| N22R | 1.64 |
| N22W | 2.6 |
| N22F | 2.7 |
| N22T | 2.53 |
| N22A | 1.73 |
| C13F | 1.65 |
| C13G | 2.54 |
| C13W | 2.19 |
| C13M | 2.01 |
| C13N | 3.21 |
| C13T | 2.08 |
| C13Y | 1.64 |

| Variant | protein stability index |
| --- | --- |
| C13S | 2.14 |
| C13P | 2.57 |
| C13V | 1.97 |
| C13R | 2.3 |
| C13I | 2.58 |
| C13Q | 1.96 |
| C13K | 2.34 |
| C13E | 2.68 |
| C13L | 1.87 |
| C13D | 2.57 |
| C13H | 2.33 |
| C13A | 2.55 |
| L21M | 1.47 |
| L21Y | 1.85 |
| L21V | 2.23 |
| L21I | 2.29 |
| L21K | 2.79 |
| L21N | 2.22 |
| L21F | 1.91 |
| L21D | 2.17 |
| L21S | 1.97 |
| L21C | 1.69 |
| L21G | 1.98 |
| L21W | 1.79 |
| L21R | 2.34 |
| L21T | 2.3 |

| Variant | protein stability index |
| --- | --- |
| L21A | 2.16 |
| L21E | 2.88 |
| L21Q | 2.47 |
| L21P | 2.97 |
| L21H | 1.75 |
| E15L | 2.48 |
| E15G | 1.9 |
| E15W | 3.6 |
| E15Q | 1.49 |
| E15T | 2.5 |
| E15D | 1.73 |
| E15C | 2.38 |
| E15V | 2.12 |
| E15M | 3.02 |
| E15Y | 2.12 |
| E15H | 1.25 |
| E15K | 2.18 |
| E15A | 2.17 |
| E15F | 2.26 |
| E15P | 1.63 |
| E15N | 1.69 |
| E15I | 1.96 |
| E15R | 1.96 |
| E15S | 1.23 |
| N19R | 2.31 |
| N19T | 1.9 |

| Variant | protein stability index |
| --- | --- |
| N19Y | 3.59 |
| N19I | 3.11 |
| N19M | 1.63 |
| N19P | 1.02 |
| N19C | 1.54 |
| N19S | 1.91 |
| N19A | 1.41 |
| N19V | 2.05 |
| N19H | 1.73 |
| N19E | 2.24 |
| N19L | 2.63 |
| N19Q | 2.02 |
| N19W | 2.24 |
| N19F | 2.58 |
| N19G | 2.8 |
| N19D | 2.05 |
| N19K | 1.72 |
| W17D | 2.4 |
| W17G | 2.52 |
| W17I | 2.14 |
| W17R | 2.4 |
| W17E | 3.22 |
| W17Y | 2.38 |
| W17T | 2.69 |
| W17N | 2.8 |
| W17H | 2.69 |

| Variant | protein stability index |
| --- | --- |
| W17L | 2.96 |
| W17P | 3.13 |
| W17K | 2.94 |
| W17A | 2.35 |
| W17C | 2.3 |
| W17V | 2.08 |
| W17S | 2.53 |
| W17M | 2.31 |
| W17Q | 2.71 |
| W17F | 2.81 |
| E24A | 2.08 |
| E24C | 1.41 |
| E24D | 2.34 |
| E24M | 3.97 |
| E24K | 2.68 |
| E24W | 1.79 |
| E24L | 2.54 |
| E24S | 1.81 |
| E24R | 2.75 |
| E24Q | 1.4 |
| E24N | 2.35 |
| E24G | 3 |
| E24V | 3.05 |
| E24P | 2.12 |
| E24I | 2.27 |
| E24T | 2.21 |

| Variant | protein stability index |
| --- | --- |
| E24H | 2 |
| E24F | 2.82 |
| R14V | 1.74 |
| R14Q | 2.52 |
| R14G | 2.03 |
| R14I | 1.83 |
| R14E | 2.59 |
| R14A | 2 |
| R14N | 2.62 |
| R14Y | 2.12 |
| R14W | 1.82 |
| R14H | 2.3 |
| R14P | 2.64 |
| R14T | 2.61 |
| R14M | 1.29 |
| R14L | 1.63 |
| R14C | 1.77 |
| R14K | 1.87 |
| R14S | 1.5 |
| R14D | 2.56 |
| R14F | 1.47 |
| R16E | 2.58 |
| R16G | 1.71 |
| R16F | 2.19 |
| R16K | 2.66 |
| R16S | 1.85 |

| Variant | protein stability index |
| --- | --- |
| R16M | 2.39 |
| R16A | 2.21 |
| R16H | 1.58 |
| R16Y | 2.41 |
| R16I | 1.54 |
| R16C | 2.13 |
| R16W | 4.03 |
| R16N | 2 |
| R16P | 1.96 |
| R16Q | 2.12 |
| R16V | 2 |
| R16D | 2.08 |
| R16T | 2.13 |
| R16L | 2.06 |
| H20P | 2.41 |
| H20Q | 1.84 |
| H20V | 2.58 |
| H20N | 2.1 |
| H20C | 2.44 |
| H20I | 1.77 |
| H20S | 1.54 |
| H20E | 2.35 |
| H20T | 2.09 |
| H20W | 2.57 |
| H20K | 2.18 |
| H20R | 1.21 |

| Variant | protein stability index |
| --- | --- |
| H20M | 1.06 |
| H20G | 1.87 |
| H20A | 1.69 |
| H20F | 1.92 |
| H20L | 2.42 |
| H20D | 1.96 |
| H20Y | 1.62 |
| H18T | 2.97 |
| H18A | 1.61 |
| H18E | 1.82 |
| H18N | 2.33 |
| H18I | 2.73 |
| H18V | 1.1 |
| H18R | 1.56 |
| H18P | 1.9 |
| H18G | 1.85 |
| H18Y | 1.67 |
| H18F | 2.24 |
| H18D | 1.85 |
| H18C | 1.8 |
| H18Q | 2.43 |
| H18L | 1.55 |
| H18K | 2.87 |
| H18S | 1.47 |
| Q12W | 1.93 |
| Q12T | 1.55 |

| Variant | protein stability index |
| --- | --- |
| Q12Y | 2.33 |
| Q12V | 1.61 |
| P23K | 2.26 |
| P23H | 2.1 |
| P23T | 2.19 |
| P23L | 1.66 |
| P23G | 2.03 |
| P23C | 2.4 |
| P23D | 1.89 |
| P23N | 1.93 |
| P23M | 2.21 |
| P23Y | 1.33 |
| P23S | 1.49 |
| P23Q | 1.79 |
| P23A | 2.62 |
| P23V | 2.46 |
| P23W | 1.98 |
| P23E | 1.85 |
| P23R | 2.11 |
| P23F | 3.01 |
| P23I | 2.14 |

Variants of: B2
Test: as above
Conditions: c terminus: a fixed tail appended

| Variant | protein stability index |
| --- | --- |
| C17V | 1.89 |
| C17T | 3.25 |
| C17I | 2.36 |
| C17D | 1.8 |
| V10Q | 1.29 |
| V10Y | 1.13 |
| V10A | 2.91 |
| V10W | 3.71 |
| T6F | 2.48 |
| T6D | 3.22 |
| T6A | 2.79 |
| T6G | 2.51 |
| T6H | 2.12 |
| T6P | 1.65 |
| T6I | 2.48 |
| E12I | 2.56 |
| E12A | 3.59 |
| E12W | 2.6 |
| E12Q | 2.74 |
| E12V | 3.03 |
| E12F | 2.27 |
| E12N | 3.79 |
| E12L | 4.46 |
| E12T | 1.99 |
| Q8D | 2.45 |
| Q8G | 1.72 |
| Q8I | 3.21 |

| Variant | protein stability index |
| --- | --- |
| Q8C | 2.98 |
| Q8N | 2.13 |
| Q8R | 4.3 |
| Q8H | 3.2 |
| C5M | 3.18 |
| C5D | 2.59 |
| C5Q | 3.77 |
| C5I | 3.26 |
| F23E | 3.16 |
| F23N | 4.1 |
| F23L | 2.8 |
| F23G | 2.44 |
| F23D | 2.19 |
| L21Y | 1.69 |
| L21Q | 1.93 |
| L21N | 1.35 |
| L21S | 1.84 |
| S1Y | 3.3 |
| S1P | 2.84 |
| S1N | 2.42 |
| D3A | 2.55 |
| D3V | 3.3 |
| D3N | 2.68 |
| D3Y | 4 |
| D2L | 3.05 |
| D2N | 3.57 |
| D2H | 2.72 |

| Variant | protein stability index |
| --- | --- |
| D2C | 3.12 |
| D2A | 3.55 |
| F4T | 3.91 |
| F4Y | 2.63 |
| F4D | 2.46 |
| F4M | 3.37 |
| N24R | 3.43 |
| N24W | 3.94 |
| N24S | 2.05 |
| N24A | 3.67 |
| G13D | 3.2 |
| G13F | 2.3 |
| V19K | 1.22 |
| V19Q | 1.75 |
| V19E | 2.11 |
| V19T | 3.14 |
| V19P | 2.12 |
| V19R | 1.9 |
| V19N | 2.07 |
| V19I | 3.22 |
| V19F | 2.73 |
| V19D | 2.65 |
| V19Y | 2.38 |
| V19H | 2.41 |
| L11I | 2.51 |
| L11Y | 3.1 |
| V15L | 4.13 |

| Variant | protein stability index |
| --- | --- |
| V15E | 2.33 |
| V15P | 2.97 |
| V15H | 4.25 |
| V15F | 3.41 |
| M9Y | 2.76 |
| M9T | 3.09 |
| M9E | 1.42 |
| M9D | 2.18 |
| M9W | 2.28 |
| M9F | 2.5 |
| T18G | 3.96 |
| T18A | 3.01 |
| T18L | 2.5 |
| N22L | 2.04 |
| N22D | 2.09 |
| N22I | 3.6 |
| T20F | 3.21 |
| T20M | 2.71 |
| G14D | 3.01 |
| G14M | 2.54 |
| C16N | 2.89 |
| C16Y | 2.76 |
| C16E | 2.24 |
| F7G | 2.88 |
